Results taken from PMC5108039, “Functional and Structural Characterization of a Novel HLA-DRB1*04:01-Restricted α-Enolase T Cell Epitope in Rheumatoid Arthritis” (Frontiers in Immunology, 2016).
Read-outs that look alike come from different tables or passages of the source. Square brackets hold non-standard residues; d marks the D form. Ends that are not written are not given here. Peptide text beside a SMILES is read from it. Cit = NC(=O)NCCC[C@H](N)C(=O)O

Key:
HLA-DRB1*04:04 = HLA-DRB1*04:04 (Homo sapiens, UniProt P01903+P01911, A100R/A169T/F76Y/I96L/K127E/L162R/M171V/N62H/P40V/Q125Y/R42H/S133A/S149N/S66Y/V209L/W38E); assay: Competition peptide-binding assay, HLA-DRB1*04:04
Method: Stepwise binding analysis of 15-mer peptides derived from both native and citrullinated α-enolase to HLA-DRB1*01, *04:01, and *04:04 was performed using the ProImmune Class II Reveal assay (ProImmune, Oxford, UK). Relevant peptides were thereafter synthesized by GenScript (Piscataway, NJ, USA) and used for competition peptide-binding assays. […] Finally, peptide-binding affinity to the three different HLA alleles was assessed in direct binding assays in which N-terminally biotinylated epitopes (GenScript, Piscataway, NJ, USA) were incubated at concentrations from 5 to 0.05 μM with plate-bound relevant HLA-DRB1 molecules in the absence of a competitor peptide ([22]). The inflection point of the binding curve of a known binding epitope was used as a cutoff to separate weakly binding epitopes from background. […]

HLA-DRB1*01:01 = HLA-DRB1*01:01 (Homo sapiens, UniProt P01903+P01911, A100R/D57E/F55L/F60I/F76Y/I96L/L162R/M171V/P40L/Q125E/R42F/V115G/Y59C); assay: Competition peptide-binding assay, HLA-DRB1*01:01
Method: Stepwise binding analysis of 15-mer peptides derived from both native and citrullinated α-enolase to HLA-DRB1*01, *04:01, and *04:04 was performed using the ProImmune Class II Reveal assay (ProImmune, Oxford, UK). Relevant peptides were thereafter synthesized by GenScript (Piscataway, NJ, USA) and used for competition peptide-binding assays. […] Finally, peptide-binding affinity to the three different HLA alleles was assessed in direct binding assays in which N-terminally biotinylated epitopes (GenScript, Piscataway, NJ, USA) were incubated at concentrations from 5 to 0.05 μM with plate-bound relevant HLA-DRB1 molecules in the absence of a competitor peptide ([22]). The inflection point of the binding curve of a known binding epitope was used as a cutoff to separate weakly binding epitopes from background.
We decided to make use of HLA-DRB1*01:01 as a representative model for HLA-DRB1*01.

HLA-DRB1*04:01 = HLA-DRB1*04:01 (Homo sapiens, UniProt P01903+P01911, A100K/A169T/F76Y/I96L/K127E/L162R/M171V/N62H/P40V/Q125Y/R42H/S133A/S149N/S66Y/V115G/V209L/W38E); assay: biochemical
[1] = target: HLA-DRB1*04:04 (plate-bound, peptide-binding assays) (human); assay: competition peptide-binding assay on plates
[2] = target: HLA-DRB1*01:01 (plate-bound, peptide-binding assays) (human); assay: competition peptide-binding assay on plates
[3] = target: HLA-DRB1*04:01 (plate-bound, peptide-binding assays) (human); assay: competition peptide-binding assay on plates
[4] = competition with 0.02 μM biotinylated GAD65 270–285, plate-bound HLA-DRB1*04:04, increasing peptide concentrations, read-out: IC50 *04:04
[5] = competition with 0.02 μM biotinylated HA306–318, plate-bound HLA-DRB1*01:01, increasing peptide concentrations, read-out: IC50 *01:01

Row | IC50 [1] [µM] | IC50 [2] [µM] | IC50 [3] [µM] | Molecule | IC50 (HLA-DRB1*04:04; [4]) [µM] | IC50 (HLA-DRB1*01:01; [5]) [µM] | also measured
1 | 1.7 | 25 | 2.2 | α-enolase peptide Cit11 (residues 11–25), citrullinated | – | – | –
2 | 0.7 | > 50 | 1.9 | K[Cit]IAKAVNEKSCNCL (cysteine pairing not given here) [α-enolase peptide Cit326 (residues 326–340), citrullinated] | – | – | –
3 | 0.5 | 1.9 | 1.5 | TSKGLF[Cit]AAVPSGAS [α-enolase peptide Cit26 (residues 26–40), citrullinated] | – | – | –
4 | 0.2 | 42 | 2.5 | VIGMDVAASEFF[Cit]SG [α-enolase peptide Cit241 (residues 241–255), citrullinated] | – | – | –
5 | > 50 | 3.5 | – | MSILKIHAREIFDSR [α-enolase peptide 1 (residues 1–15), native] | – | – | –
6 | 0.5 | 35 | 2 | VIGMDVAASEFFRSG [α-enolase peptide 241 (residues 241–255), native] | – | – | –
7 | > 50 | > 50 | – | MSILKIHA[Cit]EIFDS[Cit] [α-enolase peptide Cit1 (residues 1–15), citrullinated] | – | – | –
8 | > 50 | – | – | LPVGAANF[Cit]EAM[Cit]IG [α-enolase peptide Cit171 (residues 171–185), citrullinated] | – | – | –
9 | 25 | > 50 | > 50 | KAKFAGRNFRNPLAK [α-enolase peptide 420 (residues 420–434), native] | – | – | –
10 | 28 | > 50 | > 50 | KAKFAG[Cit]NF[Cit]NPLAK [α-enolase peptide Cit420 (residues 420–434), citrullinated] | – | – | –
11 | 0.5 | 1.4 | 4 | TSKGLFRAAVPSGAS [α-enolase peptide 26 (residues 26–40), native] | – | – | –
12 | 0.7 | > 50 | 1.7 | KRIAKAVNEKSCNCL [α-enolase peptide 326 (residues 326–340), native] | – | – | –

The remaining lines, values behind:

Row | Molecule | IC50 [1] [µM] | IC50 [2] [µM] | IC50 [3] [µM] | IC50 (HLA-DRB1*04:04; [4]) [µM] | IC50 (HLA-DRB1*01:01; [5]) [µM] | also measured
13 | CC[C@H](C)[C@H](N)C(=O)N[C@@H](Cc1ccccc1)C(=O)N[C@@H](CC(=O)O)C(=O)N[C@@H](CO)C(=O)N[C@@H](CCCNC(N)=O)C(=O)NCC(=O)N[C@@H](CC(N)=O)C(=O)N1CCC[C@H]1C(=O)N[C@H](C(=O)N[C@H](C(=O)N[C@@H](CCC(=O)O)C(=O)N[C@@H](CC(=O)O)C(=O)N[C@H](C(=O)N[C@@H](CC(C)C)C(=O)N[C@@H](Cc1ccccc1)C(=O)O)C(C)C)C(C)C)[C@@H](C)O [cit11] (H-IFDS[Cit]GNPTVEDVLF-OH) | – | – | – | – | – | IC50 (HLA-DRB1*04:04): 1.7 µM; IC50 (HLA-DRB1*01:01): 25 µM
14 | CC(C)C[C@H](NC(=O)CNC(=O)[C@H](CCCCN)NC(=O)[C@H](CO)NC(=O)[C@@H](N)[C@@H](C)O)C(=O)N[C@@H](Cc1ccccc1)C(=O)N[C@@H](CCCNC(N)=O)C(=O)N[C@@H](C)C(=O)N[C@@H](C)C(=O)N[C@H](C(=O)N1CCC[C@H]1C(=O)N[C@@H](CO)C(=O)NCC(=O)N[C@@H](C)C(=O)N[C@@H](CO)C(=O)O)C(C)C [cit26] (H-TSKGLF[Cit]AAVPSGAS-OH) | – | – | – | 0.5 | 1.9 | IC50 (HLA-DRB1*04:01): 1.5 µM
15 | CC[C@H](C)[C@H](NC(=O)[C@@H](N)C(C)C)C(=O)NCC(=O)N[C@@H](CCSC)C(=O)N[C@@H](CC(=O)O)C(=O)N[C@H](C(=O)N[C@@H](C)C(=O)N[C@@H](C)C(=O)N[C@@H](CO)C(=O)N[C@@H](CCC(=O)O)C(=O)N[C@@H](Cc1ccccc1)C(=O)N[C@@H](Cc1ccccc1)C(=O)N[C@@H](CCCNC(N)=O)C(=O)N[C@@H](CO)C(=O)NCC(=O)O)C(C)C [cit241] (H-VIGMDVAASEFF[Cit]SG-OH) | – | – | – | 0.2 | 42 | IC50 (HLA-DRB1*04:01): 2.5 µM
16 | CC[C@H](C)[C@H](NC(=O)[C@H](CCCNC(N)=O)NC(=O)[C@@H](N)CCCCN)C(=O)N[C@@H](C)C(=O)N[C@@H](CCCCN)C(=O)N[C@@H](C)C(=O)N[C@H](C(=O)N[C@@H](CC(N)=O)C(=O)N[C@@H](CCC(=O)O)C(=O)N[C@@H](CCCCN)C(=O)N[C@@H](CO)C(=O)N[C@@H](CS)C(=O)N[C@@H](CC(N)=O)C(=O)N[C@@H](CS)C(=O)N[C@@H](CC(C)C)C(=O)O)C(C)C [cit326] (H-K[Cit]IAKAVNEKSCNCL-OH) | – | – | – | 0.7 | > 50 | –
17 | CC[C@H](C)[C@H](NC(=O)[C@H](Cc1c[nH]cn1)NC(=O)[C@H](CCC(=O)O)NC(=O)[C@@H](NC(=O)[C@H](C)NC(=O)[C@H](CCCCN)NC(=O)[C@H](CO)NC(=O)[C@@H](NC(=O)CNC(=O)[C@H](CCCCN)NC(=O)CNC(=O)[C@H](CCSC)NC(=O)[C@H](Cc1ccc(O)cc1)NC(=O)[C@@H](N)CCCNC(=N)N)C(C)C)C(C)C)C(=O)N[C@@H](CC(N)=O)C(=O)O [compound 56] (H-RYMGKGVSKAVEHIN-OH; N-terminus and C-terminus assumed) | – | – | – | > 50 | > 50 | –
18 | CC[C@H](C)[C@H](NC(=O)[C@H](CCCNC(=N)N)NC(=O)[C@H](CCSC)NC(=O)[C@H](C)NC(=O)[C@H](CCC(=O)O)NC(=O)[C@H](CCCNC(=N)N)NC(=O)[C@H](Cc1ccccc1)NC(=O)[C@H](CC(N)=O)NC(=O)[C@H](C)NC(=O)[C@H](C)NC(=O)CNC(=O)[C@@H](NC(=O)[C@@H]1CCCN1C(=O)[C@@H](N)CC(C)C)C(C)C)C(=O)NCC(=O)O [compound 171] (H-LPVGAANFREAMRIG-OH; N-terminus and C-terminus assumed) | – | – | – | > 50 | > 50 | –
19 | CC[C@H](C)[C@H](NC(=O)[C@@H](N)C(C)C)C(=O)NCC(=O)N[C@@H](CCSC)C(=O)N[C@@H](CC(=O)O)C(=O)N[C@H](C(=O)N[C@@H](C)C(=O)N[C@@H](C)C(=O)N[C@@H](CO)C(=O)N[C@@H](CCC(=O)O)C(=O)N[C@@H](Cc1ccccc1)C(=O)N[C@@H](Cc1ccccc1)C(=O)N[C@@H](CCCNC(=N)N)C(=O)N[C@@H](CO)C(=O)NCC(=O)O)C(C)C [compound 241] (H-VIGMDVAASEFFRSG-OH) | – | – | – | 0.5 | 35 | IC50 (HLA-DRB1*04:01): 2 µM
20 | CC[C@H](C)[C@H](NC(=O)[C@H](CCCCN)NC(=O)[C@H](CC(C)C)NC(=O)[C@@H](NC(=O)[C@H](CO)NC(=O)[C@@H](N)CCSC)[C@@H](C)CC)C(=O)N[C@@H](Cc1c[nH]cn1)C(=O)N[C@@H](C)C(=O)N[C@@H](CCCNC(=N)N)C(=O)N[C@@H](CCC(=O)O)C(=O)N[C@H](C(=O)N[C@@H](Cc1ccccc1)C(=O)N[C@@H](CC(=O)O)C(=O)N[C@@H](CO)C(=O)N[C@@H](CCCNC(=N)N)C(=O)O)[C@@H](C)CC [peptide 1] (H-MSILKIHAREIFDSR-OH) | – | – | – | > 50 | 3.5 | IC50 (HLA-DRB1*04:01): > 50 µM
21 | CC[C@H](C)[C@H](N)C(=O)N[C@@H](Cc1ccccc1)C(=O)N[C@@H](CC(=O)O)C(=O)N[C@@H](CO)C(=O)N[C@@H](CCCNC(=N)N)C(=O)NCC(=O)N[C@@H](CC(N)=O)C(=O)N1CCC[C@H]1C(=O)N[C@H](C(=O)N[C@H](C(=O)N[C@@H](CCC(=O)O)C(=O)N[C@@H](CC(=O)O)C(=O)N[C@H](C(=O)N[C@@H](CC(C)C)C(=O)N[C@@H](Cc1ccccc1)C(=O)O)C(C)C)C(C)C)[C@@H](C)O [peptide 11] (H-IFDSRGNPTVEDVLF-OH; N-terminus and C-terminus assumed) | – | – | – | > 50 | > 50 | –
22 | CC[C@H](C)[C@H](NC(=O)[C@H](CCCNC(=N)N)NC(=O)[C@@H](N)CCCCN)C(=O)N[C@@H](C)C(=O)N[C@@H](CCCCN)C(=O)N[C@@H](C)C(=O)N[C@H](C(=O)N[C@@H](CC(N)=O)C(=O)N[C@@H](CCC(=O)O)C(=O)N[C@@H](CCCCN)C(=O)N[C@@H](CO)C(=O)N[C@@H](CS)C(=O)N[C@@H](CC(N)=O)C(=O)N[C@@H](CS)C(=O)N[C@@H](CC(C)C)C(=O)O)C(C)C [peptide 326] (H-KRIAKAVNEKSCNCL-OH) | – | – | – | 0.7 | > 50 | –
